This assay addresses T1, recombinant KDM5B (human), Q9UGL1.
T1 chain: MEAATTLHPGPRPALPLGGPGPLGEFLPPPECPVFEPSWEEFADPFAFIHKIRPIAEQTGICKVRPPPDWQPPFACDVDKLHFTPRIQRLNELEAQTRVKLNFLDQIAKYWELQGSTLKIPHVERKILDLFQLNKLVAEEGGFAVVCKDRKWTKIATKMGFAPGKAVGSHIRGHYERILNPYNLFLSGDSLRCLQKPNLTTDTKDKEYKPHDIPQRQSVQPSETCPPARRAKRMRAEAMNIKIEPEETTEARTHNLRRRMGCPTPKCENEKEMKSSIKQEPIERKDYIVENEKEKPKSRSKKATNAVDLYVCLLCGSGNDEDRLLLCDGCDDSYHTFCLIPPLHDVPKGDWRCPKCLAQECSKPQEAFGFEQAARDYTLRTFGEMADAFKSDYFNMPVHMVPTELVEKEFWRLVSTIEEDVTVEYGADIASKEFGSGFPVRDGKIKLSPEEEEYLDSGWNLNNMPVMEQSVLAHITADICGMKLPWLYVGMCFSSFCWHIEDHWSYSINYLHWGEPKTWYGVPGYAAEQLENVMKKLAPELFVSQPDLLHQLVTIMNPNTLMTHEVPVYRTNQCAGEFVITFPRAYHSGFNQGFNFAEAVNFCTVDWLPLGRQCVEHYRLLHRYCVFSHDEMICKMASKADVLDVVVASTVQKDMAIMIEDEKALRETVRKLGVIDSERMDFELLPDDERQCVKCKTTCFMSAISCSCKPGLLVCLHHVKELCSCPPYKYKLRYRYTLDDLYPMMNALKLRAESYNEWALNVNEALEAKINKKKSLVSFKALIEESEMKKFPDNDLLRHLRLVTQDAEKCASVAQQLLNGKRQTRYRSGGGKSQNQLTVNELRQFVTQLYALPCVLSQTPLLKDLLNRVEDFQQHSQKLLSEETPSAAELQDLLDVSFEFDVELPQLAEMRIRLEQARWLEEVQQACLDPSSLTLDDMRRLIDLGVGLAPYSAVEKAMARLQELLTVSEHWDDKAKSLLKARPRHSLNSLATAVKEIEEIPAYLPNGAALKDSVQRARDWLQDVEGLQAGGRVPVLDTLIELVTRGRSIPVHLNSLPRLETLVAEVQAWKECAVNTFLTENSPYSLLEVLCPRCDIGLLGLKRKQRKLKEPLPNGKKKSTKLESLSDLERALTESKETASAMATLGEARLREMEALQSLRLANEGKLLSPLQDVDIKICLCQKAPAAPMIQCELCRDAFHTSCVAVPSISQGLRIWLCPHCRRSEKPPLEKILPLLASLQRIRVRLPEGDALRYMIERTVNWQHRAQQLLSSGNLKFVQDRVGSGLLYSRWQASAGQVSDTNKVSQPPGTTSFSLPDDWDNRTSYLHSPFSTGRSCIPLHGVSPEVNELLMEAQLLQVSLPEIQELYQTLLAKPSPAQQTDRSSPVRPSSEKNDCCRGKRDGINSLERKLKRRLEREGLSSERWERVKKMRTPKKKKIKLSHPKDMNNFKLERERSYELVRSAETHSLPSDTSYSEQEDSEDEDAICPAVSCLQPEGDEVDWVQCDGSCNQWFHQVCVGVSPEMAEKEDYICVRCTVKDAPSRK
Nature of the assay: native gel or EMSA. Conditions: remark: other sources report otherwise. (In EMSA bound probe runs differently from free probe, usually more slowly.)

What is called stoichiometry N is the number of molecules, sites or subunits per partner or assembly.

B1: recombinant KDM5B, Q9UGL1 1-1544 (natural protein)
chain: T1 chain
As to B1, the stoichiometry N turned out to be 2.

The values above are taken from article PMC12241816.
